Laboratory results taken from patent US20160362487A1 (Regeneron, published 2016).

T1: cynomolgus monkey IL-33 expressed with a C-terminal hexahistidine tag (cynomolgus monkey)
T1 construct: also called MfIL-33-6His; Mf-IL-33-6His
T1 chain: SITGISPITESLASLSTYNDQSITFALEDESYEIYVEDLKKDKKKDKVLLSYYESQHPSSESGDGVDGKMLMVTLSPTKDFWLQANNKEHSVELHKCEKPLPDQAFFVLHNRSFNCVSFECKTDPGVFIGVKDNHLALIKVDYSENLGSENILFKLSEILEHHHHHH

T2: human IL-33 (R&D Systems, #3625-IL-010/CF) (human, UniProt O95760 112-270)
T2 construct: Commercial recombinant protein; also called hIL-33; interleukin-33
T2 sequence (looked up): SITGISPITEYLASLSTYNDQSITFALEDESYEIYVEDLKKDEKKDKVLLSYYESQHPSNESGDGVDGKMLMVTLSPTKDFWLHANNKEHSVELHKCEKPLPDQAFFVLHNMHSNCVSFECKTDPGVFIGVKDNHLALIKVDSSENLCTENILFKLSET


How the values were obtained:
[1] = target: T1, cynomolgus monkey IL-33 expressed with …; assay: BLI; captured MfIL-33-6His, mAb-1 step with Isotype control
Description: Binding competition between a panel of different anti-IL-33 monoclonal antibodies was determined using a real time, label-free bio-layer interferometry assay on an Octet® HTX biosensor (ForteBio, A Division of Pall Life Sciences). The experiment was performed at 25° C. using a buffer of 0.01M HEPES pH7.4, 0.15M NaCl, 3 mM EDTA, 0.05% v/v Surfactant Tween-20, and 0.1 mg/ml BSA (HBS-ET kinetics buffer) with the plate shaking at a speed of 1000 rpm. […] The antigen-captured biosensors were then saturated with a first anti-IL-33 monoclonal antibody (subsequently referred to as mAb-1) by immersion into wells containing 50 μg/mL solution of mAb-1 for 5 minutes. The biosensors were then dipped into wells containing a 50 μg/mL solution of a second anti-IL-33 monoclonal antibody (subsequently referred to as mAb-2) for 4 minutes. The biosensors were washed in HBS-ET kinetics buffer in between every step of the experiment. The real-time binding response was monitored during the experiment, and the maximum binding response for each binding step was recorded. The response of mAb-2 binding to MfIL-33-6His pre-complexed with mAb-1 was measured, and competitive/non-competitive behavior of different anti-IL-33 monoclonal antibodies with respect to each other was determined.

[2] = target: T1, cynomolgus monkey IL-33 expressed with …; assay: SPR 25C pH7.4, mAb captured
Description: (§1) Equilibrium dissociation constants (KD values) for IL-33 binding to purified anti-IL-33 monoclonal antibodies were determined using a real-time surface plasmon resonance biosensor using a Biacore 4000 instrument. The Biacore sensor surface was first derivatized by amine coupling with either a polyclonal rabbit anti-mouse antibody (GE, # BR-1008-38) or with a monoclonal mouse anti-human Fc antibody (GE, # BR-1008-39) to capture anti-IL-33 monoclonal antibodies expressed with mouse or with human IgG4 constant regions, respectively. All Biacore binding studies were performed in 0.01M ADA pH 7.4, 0.15M NaCl, 3 mM EDTA, and 0.05% v/v Surfactant Tween-20 (ABS-ET running buffer). […] Association of either hIL-33 or MfIL-33-6His to the captured monoclonal antibody was monitored for 4 minutes and their dissociation in ABS-ET running buffer was monitored for 10 minutes. The effect of reduced pH on the binding of each anti-IL-33 antibody to either hIL-33 or MfIL-33-6His was studied using an in-line pH chase assay format in 0.01M ADA pH 6.0, 0.15M NaCl, 3 mM EDTA, and 0.05% v/v Surfactant Tween-20 (ABS-ET pH6 buffer). To achieve this, association of either hIL-33 or MfIL-33-6His to the captured monoclonal antibody was monitored for 4 minutes in ABS-ET running buffer. Following a 30 second dissociation of either hIL-33 or MfIL-33-6His in ABS-ET running buffer, ABS-ET pH6 buffer was injected for 3 minutes, and the analyte dissociation under the low-pH conditions was measured. All the binding kinetic experiments were performed at both 25° C. and 37° C. Kinetic association (kₐ) and dissociation (kd) constants were determined by fitting the real-time sensorgrams to a 1:1 binding model using Scrubber 2.0c curve fitting software. Binding dissociation equilibrium constants (KD) and dissociative half-lives (t½) were calculated from the kinetic rate constants as: […]

[3] = target: T2, human IL-33 (R&D Systems, …); assay: SPR 25C pH7.4, mAb captured
Description: as §1

[4] = target: T1, cynomolgus monkey IL-33 expressed with …; assay: cell-based or functional assay
[5] = target: T2, human IL-33 (R&D Systems, …); assay: cell-based or functional assay
[6] = target: T2, human IL-33 (R&D Systems, …); assay: BLI; hIL-33 pre-mixed with mAb-2 H1M9565N
Description: Binding competition between a panel of different anti-IL-33 monoclonal antibodies was determined using a real time, label-free bio-layer interferometry assay on an Octet® HTX biosensor (ForteBio, A Division of Pall Life Sciences). The experiment was performed at 25° C. using a buffer of 0.01M HEPES pH7.4, 0.15M NaCl, 0.05% v/v Surfactant Tween-20, and 0.1 mg/ml BSA (HBS-ET kinetics buffer) with the plate shaking at a speed of 1000 rpm. To assess whether two antibodies were able to compete with one another for binding to human IL-33, a pre-mix assay format was used where 100 nM of human IL-33 (R&D Systems; #3625-IL-010/CF) was pre-mixed with 500 nM of different anti-IL-33 monoclonal antibodies (subsequently referred to as mAb-2) for at least 2 hours prior to running the binding competition assay. […] Following the capture step, unoccupied anti-mouse Fc polyclonal antibody and anti-human Fc polyclonal antibody on the Octet biosensors were saturated by submerging them for 4 minutes into wells containing 200 μg/mL of a non-specific monoclonal antibody with a mouse Fc or with a human Fc, respectively. Finally, the Octet biosensors were immersed for 4 minutes into wells containing the pre-mixed samples of 100 nM of human IL-33 and 500 nM of mAb-2. At the end of each cycle, the non-covalently captured anti-IL-33 antibodies along with the bound pre-complex of human IL-33 and mAb-2 were removed from the biosensors using three alternate 20 second immersions into 10 mM HCl followed by submerging into HBS-ET kinetics buffer. The biosensors were washed in HBS-ET kinetics buffer in between every step of the experiment. The real-time binding response was monitored during the binding events, and the binding response (in units of nm) at the end of every step was recorded.

Row | Binder | mAb-2 Binding to the Pre-complex of mAb-1 & MfIL-33-6xHis [1] [nm] | Kd [2] [nM] | koff [2] [s⁻¹] | kon [2] [M⁻¹ s⁻¹] | t½ [2] [min] | Kd [3] [nM] | koff [3] [s⁻¹] | kon [3] [M⁻¹ s⁻¹] | t½ [3] [min] | IC50, inhibition of 5 pM MfIL-33-6His activation of HEK293/hST2/NFkB-luciferase cells [4] [M] | IC50, inhibition of 10 pM hIL-33 activation of HEK293/hST2/NFkB-luciferase cells [5] [M] | mAb-1 Binding to the Pre-complex of mAb-2 & hIL-33 [6] [nm]
1 | H4H9629P (antibody, human IgG4, V domains shown, Human IgG4 Fc (H4H)) VH: EVQLVESGGGLVQPGGSLRLSCAASGFTFRSFAMSWVRQAPGKGLELVSDLRTSGGSTYYADSVKGRLTISRDNSKNTLYLQMNSLRAEDTAVYYCAKSHYSTSWFGGFDYWGQGTLVTVSS VL: DIQMTQSPSSVSASVGDRVTITCRASQGFSSWLAWYQQKPGKAPKLLIYAASSLQSGVPSRFSGSGSGTDFTLTITNLQPEDFATYYCQQANSFPLTFGGGTKVEIK | 0.26 | 23.9 | 0.0135 | 562000 | 0.9 | 0.29 | 0.000226 | 777000 | 51 | 5.5e-08 | 1.3e-11 | 0.74
2 | H4H9640P (antibody, human IgG4, V domains shown, Human IgG4 Fc (H4H)) VH: QVQLQESGPGLVKPSETLSLTCTVSGGSISSYYWSWIRQPPGKGLELIGYIYYSGSTNYNPSLKSRVTISVDTSKNHFSLKLSSVTAADTAVYYCARSQYTSSWYGSFDIWGQGTMVTVSS VL: DIQMTQSPSSVSASVGDRVTITCRASQGISTWLAWFQQKPGKAPKLLIYAASTLQGGVPSRFSGSGSGPEFTLTISSLQPEDFATYYCQQANSFPWTFGQGTKVEIK | 0.28 | 3.06 | 0.00137 | 450000 | 8 | 0.26 | 0.000237 | 912000 | 49 | 1.4e-08 | 3e-11 | 0.57
3 | H1M9566N (antibody, mouse IgG1, V domains shown, Human variable domains, mouse IgG1 Fc (H1M)) VH: EVQLLESGGDLVQPGGSLRLSCAASGFTFSSYAMSWVRQAPGKGLEWVSVISGSGSSTDYADSVKGRFTISRDNSRDTLHLQMNSLRAEDTAVYYCAKTFYYFYGLDVWGQGTTVTVSS VL: DIQMTQSPSSLSASLRDRVTITCRASQGISNYLAWYQQKPGKVPKVLIYAASTLQSGVPSRFSGSGSGTVFTLTISSLQTEDVATYYCQKYSSAPFTFGPGTKVDIK | 0.38 | 0.333 | 9.75e-05 | 293000 | 119 |  |  | 127000 |  | 1.5e-09 | 9.5e-10 | 0.17
4 | H1M9568N (antibody, mouse IgG1, V domains shown, Human variable domains, mouse IgG1 Fc (H1M)) VH: QVLLVQSGAEVKKPGATVKVSCKASGSTFTGYYMHWVRQAPGQGLEWMGWINPNNGGTNYAQKFQGRVTMTRDTSISTAYMELSRLRSDDTAVYYCARELRYNWKSWGQGTLVTVSS VL: EIVLTQSPGTLSLSPGERVTLSCRASQSVGRPYLAWYQQIPGQAPRLLIYGASSRATDIPDRFSGNGSGTDFTLTISRLEPEDFAVYYCQQYDNSPYTFGQGTRLEIK | 0.34 | 1.07 | 0.000261 | 244000 | 44 | 0.184 | 0.00013 | 702000 | 89 | 3.5e-09 | 2.5e-10 | 0.08

The remaining binders from weak to strong by Kd [2], led by results:

Row | mAb-2 Binding to the Pre-complex of mAb-1 & MfIL-33-6xHis [1] [nm] | Kd [2] [nM] | koff [2] [s⁻¹] | kon [2] [M⁻¹ s⁻¹] | t½ [2] [min] | Kd [3] [nM] | koff [3] [s⁻¹] | kon [3] [M⁻¹ s⁻¹] | t½ [3] [min] | IC50, inhibition of 5 pM MfIL-33-6His activation of HEK293/hST2/NFkB-luciferase cells [4] [M] | IC50, inhibition of 10 pM hIL-33 activation of HEK293/hST2/NFkB-luciferase cells [5] [M] | mAb-1 Binding to the Pre-complex of mAb-2 & hIL-33 [6] [nm] | Binder
5 | 0.28 | 38 | 0.00997 | 262000 | 1.2 | 0.432 | 0.000283 | 656000 | 41 | 1.3e-07 | 2.2e-10 | 0.66 | H4H9633P (antibody, human IgG4, V domains shown, Human IgG4 Fc (H4H)) VH: EVQLVESGGGLVQPGGSLRLSCAASGFTFSSYVMSWVRQAPGKGLEWVSSISGNGGSTNYADSVKGRFTISRDNSKNTLFLEMNSLRAEDTAVYYCAKSLGTTTTFLGFDYWGQGTLVTVSS VL: DIQMTQSPSSVSASVGDRVTITCRASQGISSWLAWYQQKPGKAPKLLIYAASSLQSGVPSRFSGSGSGTYFTLTISSLQPEDFATYYCQQANSFPLTFGGGTKVEIK
6 | 0.34 | 1.77 | 7.2e-05 | 40600 | 160 |  |  |  |  | 1.7e-08 | 2.9e-08 |  | H1M9565N (antibody, mouse IgG1, V domains shown, Human variable domains, mouse IgG1 Fc (H1M)) VH: QVTLKESGPVLVKPTESLTLTCSVSGFSLSNVRMGVSWIRQSPGKALEWLAHIFSNDEKSYTTSLKTRLTISKDTSRSQVVLTMTDMDPGDTATYYCARIRNLAFNYWGQGTLVTVSS VL: not shown
7 | 0.25 | 1.5 | 0.000486 | 325000 | 24 | 0.327 | 0.000172 | 526000 | 67 | 3.3e-09 | 4.7e-11 | 0.52 | H4H9659P (antibody, human IgG4, V domains shown, Human IgG4 Fc (H4H)) VH: QVQLVQSGAEVKKPGASVKVSCKASGYTFNSYGISWVRQAPGQGLEWMGWISSHNGNSHYVQKFQGRVSMTTDTSTSTAYMELRSLRSDDTAVYYCARHSYTTSWYGGFDYWGQGTLVTVSS VL: DIQMTQSPSSVSASVGDRVTITCRASQGFSSWLAWYQQKPGKAPQLLIYAASSLQSGVPSRFSGSGSGSDFTLTISSLQPEDFATYYCQQANSFPLTFGGGTKVEIK
